Experiments:
[1] = biological target: T1, CK049 peptide on HLA-A*11:01 (human); experiment: cytokine release
T1 peptide: YSCPPPALVK

[2] = biological target: T2, CL056 peptide on HLA-A*11:01 (human); experiment: cytokine release
T2 peptide: SSQSAPTTGK

[3] = biological target: T3, CPNS1 peptide on HLA-A*11:01 (human); experiment: cytokine release
T3 peptide: AVMDSDTTGK

[4] = biological target: T4, CPNS2 peptide on HLA-A*11:01 (human); experiment: cytokine release
T4 peptide: SVMDSDTTGK

[5] = biological target: T5, FLNA peptide on HLA-A*11:01 (human); experiment: cytokine release
T5 peptide: VTIDGPSKVK

[6] = biological target: T6, GRIN1 peptide on HLA-A*11:01 (human); experiment: cytokine release
T6 peptide: GTAGPPSAVK

[7] = biological target: T7, IGM peptide on HLA-A*11:01 (human); experiment: cytokine release
T7 peptide: LTESGPALVK

[8] = biological target: T8, KZF4 peptide on HLA-A*11:01 (human); experiment: cytokine release
T8 peptide: HSVSSPTVGK

[9] = biological target: T9, IL17F peptide on HLA-A*11:01 (human); experiment: cytokine release
T9 peptide: KTLHGPAMVK

[10] = biological target: T10, K1671 peptide on HLA-A*11:01 (human); experiment: cytokine release
T10 peptide: TTKSGPALGK

[11] = biological target: T11, KRAS G12D (9-mer; the same sequence in NRAS G12D and HRAS G12D) peptide on HLA-A*11:01 (human); experiment: cytokine release
T11 peptide: VVGADGVGK

[12] = biological target: T12, KAD3 peptide on HLA-A*11:01 (human); experiment: cytokine release
T12 peptide: VIMGAPGSGK

[13] = biological target: T13, LEGL peptide on HLA-A*11:01 (human); experiment: cytokine release
T13 peptide: SVADSDAVVK

[14] = biological target: T14, RL7A peptide on HLA-A*11:01 (human); experiment: cytokine release
T14 peptide: KVAPAPAVVK

[15] = biological target: T15, RSLAA peptide on HLA-A*11:01 (human); experiment: cytokine release
T15 peptide: AVLGAPGVGK

[16] = biological target: T16, SALL1 peptide on HLA-A*11:01 (human); experiment: cytokine release
T16 peptide: SATSPPGSVK

[17] = biological target: T17, SEZ6 peptide on HLA-A*11:01 (human); experiment: cytokine release
T17 peptide: LSLEAPTVGK

[18] = biological target: T18, SHAN3 peptide on HLA-A*11:01 (human); experiment: cytokine release
T18 peptide: TTVPSPASGK

[19] = biological target: T19, KRAS wild type (10-mer) peptide on HLA-A*11:01 (human); experiment: cytokine release
T19 peptide: VVVGAGGVGK

[20] = biological target: T20, GEM (also listed as SEQ ID NOs 82, 106, 130, 141) peptide on HLA-A*11:01 (human); experiment: cytokine release
T20 peptide: AVFGAGGVGK

[21] = biological target: T21, ABCF1 peptide on HLA-A*11:01 (human); experiment: cytokine release
T21 peptide: STSPSDKVVK

[22] = biological target: T22, BMS1 peptide on HLA-A*11:01 (human); experiment: cytokine release
T22 peptide: VVMGPPKVGK

[23] = biological target: T23, CD166 peptide on HLA-A*11:01 (human); experiment: cytokine release
T23 peptide: NVFEAPTIVK

[24] = biological target: T24, CFA47 peptide on HLA-A*11:01 (human); experiment: cytokine release
T24 peptide: MVFDSPTIGK

[25] = biological target: T25, KRAS G12D (10-mer; the same sequence in NRAS G12D and HRAS G12D) peptide on HLA-A*11:01 (human); experiment: multimer staining
T25 peptide: VVVGADGVGK

[26] = biological target: T26, CHADL peptide on HLA-A*11:01 (human); experiment: cytokine release
T26 peptide: RQCGADKVGK

[27] = biological target: T27, DAZP1 peptide on HLA-A*11:01 (human); experiment: cytokine release
T27 peptide: NNSGADEIGK

[28] = biological target: T28, FMNL1 peptide on HLA-A*11:01 (human); experiment: cytokine release
T28 peptide: QEAGADTPGK

[29] = biological target: T29, GTR14; GTR3 (the same peptide, also listed as SEQ ID NO 88) peptide on HLA-A*11:01 (human); experiment: cytokine release
T29 peptide: QAHGADRSGK

[30] = biological target: T30, MICU1 peptide on HLA-A*11:01 (human); experiment: cytokine release
T30 peptide: YFFGADLKGK

[31] = biological target: T31, ADA2C peptide on HLA-A*11:01 (human); experiment: cytokine release
T31 peptide: GAGGADGQGA

[32] = biological target: T32, CC88B peptide on HLA-A*11:01 (human); experiment: cytokine release
T32 peptide: LRLGADGAGS

[33] = biological target: T33, DYH8 peptide on HLA-A*11:01 (human); experiment: cytokine release
T33 peptide: KVAGADGKGI

[34] = biological target: T34, EFMT2 peptide on HLA-A*11:01 (human); experiment: cytokine release
T34 peptide: MSSGADGGGG

[35] = biological target: T35, FOXL2 peptide on HLA-A*11:01 (human); experiment: cytokine release
T35 peptide: AGAGADGYGY

[36] = biological target: T36, HMCN2 peptide on HLA-A*11:01 (human); experiment: cytokine release
T36 peptide: IKQGADGSGT

[37] = biological target: T37, MARF1 peptide on HLA-A*11:01 (human); experiment: cytokine release
T37 peptide: LKLGADGSGP

[38] = biological target: T38, MED13 peptide on HLA-A*11:01 (human); experiment: cytokine release
T38 peptide: NNDGADGMGI

[39] = biological target: T39, MYLK peptide on HLA-A*11:01 (human); experiment: cytokine release
T39 peptide: GGVGADGGGS

[40] = biological target: T40, NDF2 peptide on HLA-A*11:01 (human); experiment: cytokine release
T40 peptide: TEQGADGAGR

[41] = biological target: T41, PBX3 peptide on HLA-A*11:01 (human); experiment: cytokine release
T41 peptide: GHEGADGDGR

[42] = biological target: T42, PER1 peptide on HLA-A*11:01 (human); experiment: cytokine release
T42 peptide: PLEGADGGGD

[43] = biological target: T43, ZN646 peptide on HLA-A*11:01 (human); experiment: cytokine release
T43 peptide: PEDGADGWGP

[44] = biological target: T44, HIC1 peptide on HLA-A*11:01 (human); experiment: cytokine release
T44 peptide: GVPGPDGKGK

[45] = biological target: T45, TBL3 peptide on HLA-A*11:01 (human); experiment: cytokine release
T45 peptide: LSSGSDGLVK

[46] = biological target: T46, BY55 peptide on HLA-A*11:01 (human); experiment: cytokine release
T46 peptide: RDPGIDGVGE

[47] = biological target: T47, CO6A3 peptide on HLA-A*11:01 (human); experiment: cytokine release
T47 peptide: GDDGRDGVGS

[48] = biological target: T48, CO8A2 peptide on HLA-A*11:01 (human); experiment: cytokine release
T48 peptide: GPPGVDGVGV

[49] = biological target: T49, COBA1 peptide on HLA-A*11:01 (human); experiment: cytokine release
T49 peptide: GPAGQDGVGG

[50] = biological target: T50, COIA1 peptide on HLA-A*11:01 (human); experiment: cytokine release
T50 peptide: GDPGKDGVGQ

[51] = biological target: T51, EFGM peptide on HLA-A*11:01 (human); experiment: cytokine release
T51 peptide: EVKGKDGVGA

[52] = biological target: T52, MEIS1 peptide on HLA-A*11:01 (human); experiment: cytokine release
T52 peptide: HYGGMDGVGI

[53] = biological target: T53, MEIS2 peptide on HLA-A*11:01 (human); experiment: cytokine release
T53 peptide: HYGGMDGVGV

[54] = biological target: T54, PUR2 peptide on HLA-A*11:01 (human); experiment: cytokine release
T54 peptide: LASGTDGVGT

[55] = biological target: T55, USH1G peptide on HLA-A*11:01 (human); experiment: cytokine release
T55 peptide: EDGGLDGVGA

[56] = biological target: T56, ABCF1 peptide on HLA-A*11:01 (human); experiment: cytokine release
T56 peptide: CIVGPNGVGK

[57] = biological target: T57, AGRIN peptide on HLA-A*11:01 (human); experiment: cytokine release
T57 peptide: PVCGSDGVTY

[58] = biological target: T58, CGAT2 peptide on HLA-A*11:01 (human); experiment: cytokine release
T58 peptide: RNVGANGIGY

[59] = biological target: T59, DNHD1 peptide on HLA-A*11:01 (human); experiment: cytokine release
T59 peptide: TVLGPNGVGK

[60] = biological target: T60, IBP7 peptide on HLA-A*11:01 (human); experiment: cytokine release
T60 peptide: PVCGSDGTTY

[61] = biological target: T61, NLRP9 peptide on HLA-A*11:01 (human); experiment: cytokine release
T61 peptide: VLEGPDGIGK

[62] = biological target: T62, PRA19 peptide on HLA-A*11:01 (human); experiment: cytokine release
T62 peptide: KLFISDGCGY

[63] = biological target: T63, SMC5 peptide on HLA-A*11:01 (human); experiment: cytokine release
T63 peptide: MIVGANGTGK

[64] = biological target: T64, SO3A1 peptide on HLA-A*11:01 (human); experiment: cytokine release
T64 peptide: PVCGADGITY

[65] = biological target: T65, SO5A1 peptide on HLA-A*11:01 (human); experiment: cytokine release
T65 peptide: PVCGSDGITY

[66] = biological target: T66, SOCS7 peptide on HLA-A*11:01 (human); experiment: cytokine release
T66 peptide: GSGGGDGTGK

[67] = biological target: T67, SUCB2 peptide on HLA-A*11:01 (human); experiment: cytokine release
T67 peptide: CAIIANGITK

B1: TCR 2 (TCR, V domains shown)
Valpha: AQTVTQSQPEMSVQEAETVTLSCTYDTSENNYYLFWYKQPPSRQMILVIRQEAYKQQNATENRFSVNFQKAAKSFSLKISDSQLGDTAMYFCAFMYPSQGGSEKLVFGKGMKLTVNP
Vbeta: ETGVTQSPTHLIKTRGQQVTLRCSSQSGHNTVSWYQQALGQGPQFIFQYYREEENGRGNFPPRFSGLQFPNYSSELNVNALELDDSALYLCASSSPGFRSYGYTFGSGTRLTVV
B1: no recognition [1]; no recognition [2]; no recognition [3]. B1: no recognition [4]; no recognition [5]; no recognition [6]. B1: no recognition [7]; no recognition [8]; no recognition [9]. B1: no recognition [10]; recognises [11]; no recognition [12]. B1: no recognition [13]; no recognition [14]; no recognition [15]. B1: no recognition [16]; no recognition [17]; no recognition [18]. B1: no recognition [19]; no recognition [20]; no recognition [21]. B1: no recognition [22]; no recognition [23]; no recognition [24]. B1: recognises [25].

B2: TCR 3 (TCR, V domains shown)
Valpha: AQTVTQSQPEMSVQEAETVTLSCTYDTSESDYYLFWYKQPPSRQMILVIRQEAYKQQNATENRFSVNFQKAAKSFSLKISDSQLGDAAMYFCAYRSDGGATNKLIFGTGTLLAVQP
Vbeta: EAQVTQNPRYLITVTGKKLTVTCSQNMNHEYMSWYRQDPGLGLRQIYYSMNVEVTDKGDVPEGYKVSRKEKRNFPLILESPSPNQTSLYFCASSLGAGGYNSPLHFGNGTRLTVT
B2: recognises [11]; no recognition [26]; no recognition [27]. B2: no recognition [28]; no recognition [19]; no recognition [29]. B2: no recognition [30]; no recognition [31]; no recognition [32]. B2: no recognition [33]; no recognition [34]; no recognition [35]. B2: no recognition [36]; no recognition [37]; no recognition [38]. B2: no recognition [20]; no recognition [39]; no recognition [40]. B2: no recognition [41]; no recognition [42]; no recognition [43]. B2: no recognition [44]; no recognition [45]; recognises [25].

B3: TCR 4 (TCR, V domains shown)
Valpha: QKEVEQDPGPLSVPEGAIVSLNCTYSNSAFQYFMWYRQYSRKGPELLMYTYSSGNKEDGRFTAQVDKSSKYISLFIRDSQPSDSATYLCAMGALNSGAGSYQLTFGKGTKLSVIP
Vbeta: KAGVTQTPRYLIKTRGQQVTLSCSPISGHRSVSWYQQTPGQGLQFLFEYFSETQRNKGNFPGRFSGRQFSNSRSEMNVSTLELGDSALYLCASSLSSGTGTEAFFGQGTRLTVV
B3: no recognition [19]; no recognition [20]; no recognition [46]. B3: no recognition [47]; no recognition [48]; no recognition [49]. B3: no recognition [50]; no recognition [51]; no recognition [52]. B3: no recognition [53]; no recognition [54]; no recognition [55]. B3: no recognition [56]; no recognition [57]; no recognition [58]. B3: no recognition [59]; no recognition [60]; no recognition [61]. B3: no recognition [62]; no recognition [63]; no recognition [64]. B3: no recognition [65]; no recognition [66]; no recognition [67]. B3: recognises [25].

Reference: patent US20240091361A1, “T CELL RECEPTORS TARGETING RAS MUTATIONS AND USES THEREOF” (MEMORIAL SLOAN-KETTERING CANCER CENTER, priority 2021, published 2024)
